# Results from US20220040297A1 (Chugai, published 2022).
# Biological target: T1, CD3ε homodimer protein (human, UniProt P07766 23-126, limits assumed, sulfo-tag or biotin label in some ECL assays)
# T1 construct: also called human CD3ε homodimer protein; CD3 (CD3ε)
# Assay: SPR, CD3ε homodimer on chip;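 further: biacore SPR with antibody variants flowed as analyte over amine-coupled CD3ε homodimer on a CM chip, bound amount of each single-residue H chain variant over that of parent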
# Protocol: An appropriate amount of CD3ε homodimer protein was immobilized onto Sensor chip CM4 (GE Healthcare Japan Corp.) by the amine coupling method. Then, the antibody having an appropriate concentration was injected thereto as an analyte and allowed to interact with the CD3ε homodimer protein on the sensor chip. Then, the sensor chip was regenerated by the injection of 10 mmol/L glycine-HCl (pH 1.5). The assay was conducted at 25° C., and HBS-EP+ (GE Healthcare Japan Corp.) was used as a running buffer. […] Each parameter was calculated using Biacore T200 Evaluation Software (GE Healthcare Japan Corp.).
# Specifically, when the amount of the antibody comprising CE115HA000 bound was defined as X and the amount of the H chain one-amino acid altered form bound was defined as Y, a value of Z (ratio of amounts bound)=Y/X was used.
# T1 sequence (P07766 23-126 limits assumed): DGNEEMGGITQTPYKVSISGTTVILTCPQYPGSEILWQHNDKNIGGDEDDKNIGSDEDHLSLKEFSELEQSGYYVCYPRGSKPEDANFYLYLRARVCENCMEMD
row,Binder,ratio of amounts bound vs CE115HA000
1,"CE115HA000 A60D (antibody, name in Kabat numbering, V domains shown) VH: QVQLVESGGGVVQPGRSLRLSCAASGFTFSNAWMHWVRQAPGKGLEWVAQIKAKSNNYATYYDESVKGRFTISRDDSKNSLYLQMNSLKTEDTAVYYCRYVHYGAYYGVDAWGQGTTVTVSS VL: DIVMTQSPLSLPVTPGEPASISCRSSQSLVHSNRNTYLHWYQQKPGQAPRLLIYKVSNRFSGVPDRFSGSGSGTDFTLKISRVEAEDVGVYYCGQGTQVPYTFGQGTKLEIK",0.99
2,"CE115HA000 A99F (antibody, name in Kabat numbering, V domains shown) VH: QVQLVESGGGVVQPGRSLRLSCAASGFTFSNAWMHWVRQAPGKGLEWVAQIKAKSNNYATYYAESVKGRFTISRDDSKNSLYLQMNSLKTEDTAVYYCRYVHYGFYYGVDAWGQGTTVTVSS VL: DIVMTQSPLSLPVTPGEPASISCRSSQSLVHSNRNTYLHWYQQKPGQAPRLLIYKVSNRFSGVPDRFSGSGSGTDFTLKISRVEAEDVGVYYCGQGTQVPYTFGQGTKLEIK",1.43
3,"CE115HA000 A99S (antibody, name in Kabat numbering, V domains shown) VH: QVQLVESGGGVVQPGRSLRLSCAASGFTFSNAWMHWVRQAPGKGLEWVAQIKAKSNNYATYYAESVKGRFTISRDDSKNSLYLQMNSLKTEDTAVYYCRYVHYGSYYGVDAWGQGTTVTVSS VL: DIVMTQSPLSLPVTPGEPASISCRSSQSLVHSNRNTYLHWYQQKPGQAPRLLIYKVSNRFSGVPDRFSGSGSGTDFTLKISRVEAEDVGVYYCGQGTQVPYTFGQGTKLEIK",0.82
4,"CE115HA000 A60E (antibody, name in Kabat numbering, V domains shown) VH: QVQLVESGGGVVQPGRSLRLSCAASGFTFSNAWMHWVRQAPGKGLEWVAQIKAKSNNYATYYEESVKGRFTISRDDSKNSLYLQMNSLKTEDTAVYYCRYVHYGAYYGVDAWGQGTTVTVSS VL: DIVMTQSPLSLPVTPGEPASISCRSSQSLVHSNRNTYLHWYQQKPGQAPRLLIYKVSNRFSGVPDRFSGSGSGTDFTLKISRVEAEDVGVYYCGQGTQVPYTFGQGTKLEIK",0.94
5,"CE115HA000 A99T (antibody, name in Kabat numbering, V domains shown) VH: QVQLVESGGGVVQPGRSLRLSCAASGFTFSNAWMHWVRQAPGKGLEWVAQIKAKSNNYATYYAESVKGRFTISRDDSKNSLYLQMNSLKTEDTAVYYCRYVHYGTYYGVDAWGQGTTVTVSS VL: DIVMTQSPLSLPVTPGEPASISCRSSQSLVHSNRNTYLHWYQQKPGQAPRLLIYKVSNRFSGVPDRFSGSGSGTDFTLKISRVEAEDVGVYYCGQGTQVPYTFGQGTKLEIK",0.84
6,"CE115HA000 A102V (antibody, name in Kabat numbering, V domains shown) VH: QVQLVESGGGVVQPGRSLRLSCAASGFTFSNAWMHWVRQAPGKGLEWVAQIKAKSNNYATYYAESVKGRFTISRDDSKNSLYLQMNSLKTEDTAVYYCRYVHYGAYYGVDVWGQGTTVTVSS VL: DIVMTQSPLSLPVTPGEPASISCRSSQSLVHSNRNTYLHWYQQKPGQAPRLLIYKVSNRFSGVPDRFSGSGSGTDFTLKISRVEAEDVGVYYCGQGTQVPYTFGQGTKLEIK",1.43
7,"CE115HA000 A99D (antibody, name in Kabat numbering, V domains shown) VH: QVQLVESGGGVVQPGRSLRLSCAASGFTFSNAWMHWVRQAPGKGLEWVAQIKAKSNNYATYYAESVKGRFTISRDDSKNSLYLQMNSLKTEDTAVYYCRYVHYGDYYGVDAWGQGTTVTVSS VL: DIVMTQSPLSLPVTPGEPASISCRSSQSLVHSNRNTYLHWYQQKPGQAPRLLIYKVSNRFSGVPDRFSGSGSGTDFTLKISRVEAEDVGVYYCGQGTQVPYTFGQGTKLEIK",0.28
8,"CE115HA000 A102Y (antibody, name in Kabat numbering, V domains shown) VH: QVQLVESGGGVVQPGRSLRLSCAASGFTFSNAWMHWVRQAPGKGLEWVAQIKAKSNNYATYYAESVKGRFTISRDDSKNSLYLQMNSLKTEDTAVYYCRYVHYGAYYGVDYWGQGTTVTVSS VL: DIVMTQSPLSLPVTPGEPASISCRSSQSLVHSNRNTYLHWYQQKPGQAPRLLIYKVSNRFSGVPDRFSGSGSGTDFTLKISRVEAEDVGVYYCGQGTQVPYTFGQGTKLEIK",0.91
9,"CE115HA000 A99H (antibody, name in Kabat numbering, V domains shown) VH: QVQLVESGGGVVQPGRSLRLSCAASGFTFSNAWMHWVRQAPGKGLEWVAQIKAKSNNYATYYAESVKGRFTISRDDSKNSLYLQMNSLKTEDTAVYYCRYVHYGHYYGVDAWGQGTTVTVSS VL: DIVMTQSPLSLPVTPGEPASISCRSSQSLVHSNRNTYLHWYQQKPGQAPRLLIYKVSNRFSGVPDRFSGSGSGTDFTLKISRVEAEDVGVYYCGQGTQVPYTFGQGTKLEIK",1.48
10,"CE115HA000 A99I (antibody, name in Kabat numbering, V domains shown) VH: QVQLVESGGGVVQPGRSLRLSCAASGFTFSNAWMHWVRQAPGKGLEWVAQIKAKSNNYATYYAESVKGRFTISRDDSKNSLYLQMNSLKTEDTAVYYCRYVHYGIYYGVDAWGQGTTVTVSS VL: DIVMTQSPLSLPVTPGEPASISCRSSQSLVHSNRNTYLHWYQQKPGQAPRLLIYKVSNRFSGVPDRFSGSGSGTDFTLKISRVEAEDVGVYYCGQGTQVPYTFGQGTKLEIK",1.13

# More lines, now with the values ahead:
row,ratio of amounts bound vs CE115HA000,Binder
1,1.26,"CE115HA000 D101A (antibody, name in Kabat numbering, V domains shown) VH: QVQLVESGGGVVQPGRSLRLSCAASGFTFSNAWMHWVRQAPGKGLEWVAQIKAKSNNYATYYAESVKGRFTISRDDSKNSLYLQMNSLKTEDTAVYYCRYVHYGAYYGVAAWGQGTTVTVSS VL: DIVMTQSPLSLPVTPGEPASISCRSSQSLVHSNRNTYLHWYQQKPGQAPRLLIYKVSNRFSGVPDRFSGSGSGTDFTLKISRVEAEDVGVYYCGQGTQVPYTFGQGTKLEIK"
2,1.04,"CE115HA000 D73R (antibody, name in Kabat numbering, V domains shown) VH: QVQLVESGGGVVQPGRSLRLSCAASGFTFSNAWMHWVRQAPGKGLEWVAQIKAKSNNYATYYAESVKGRFTISRDRSKNSLYLQMNSLKTEDTAVYYCRYVHYGAYYGVDAWGQGTTVTVSS VL: DIVMTQSPLSLPVTPGEPASISCRSSQSLVHSNRNTYLHWYQQKPGQAPRLLIYKVSNRFSGVPDRFSGSGSGTDFTLKISRVEAEDVGVYYCGQGTQVPYTFGQGTKLEIK"
3,0.2,"CE115HA000 D101P (antibody, name in Kabat numbering, V domains shown) VH: QVQLVESGGGVVQPGRSLRLSCAASGFTFSNAWMHWVRQAPGKGLEWVAQIKAKSNNYATYYAESVKGRFTISRDDSKNSLYLQMNSLKTEDTAVYYCRYVHYGAYYGVPAWGQGTTVTVSS VL: DIVMTQSPLSLPVTPGEPASISCRSSQSLVHSNRNTYLHWYQQKPGQAPRLLIYKVSNRFSGVPDRFSGSGSGTDFTLKISRVEAEDVGVYYCGQGTQVPYTFGQGTKLEIK"
4,1.43,"CE115HA000 D72V (antibody, name in Kabat numbering, V domains shown) VH: QVQLVESGGGVVQPGRSLRLSCAASGFTFSNAWMHWVRQAPGKGLEWVAQIKAKSNNYATYYAESVKGRFTISRVDSKNSLYLQMNSLKTEDTAVYYCRYVHYGAYYGVDAWGQGTTVTVSS VL: DIVMTQSPLSLPVTPGEPASISCRSSQSLVHSNRNTYLHWYQQKPGQAPRLLIYKVSNRFSGVPDRFSGSGSGTDFTLKISRVEAEDVGVYYCGQGTQVPYTFGQGTKLEIK"
5,1.18,"CE115HA000 D101I (antibody, name in Kabat numbering, V domains shown) VH: QVQLVESGGGVVQPGRSLRLSCAASGFTFSNAWMHWVRQAPGKGLEWVAQIKAKSNNYATYYAESVKGRFTISRDDSKNSLYLQMNSLKTEDTAVYYCRYVHYGAYYGVIAWGQGTTVTVSS VL: DIVMTQSPLSLPVTPGEPASISCRSSQSLVHSNRNTYLHWYQQKPGQAPRLLIYKVSNRFSGVPDRFSGSGSGTDFTLKISRVEAEDVGVYYCGQGTQVPYTFGQGTKLEIK"
6,1.05,"CE115HA000 D72E (antibody, name in Kabat numbering, V domains shown) VH: QVQLVESGGGVVQPGRSLRLSCAASGFTFSNAWMHWVRQAPGKGLEWVAQIKAKSNNYATYYAESVKGRFTISREDSKNSLYLQMNSLKTEDTAVYYCRYVHYGAYYGVDAWGQGTTVTVSS VL: DIVMTQSPLSLPVTPGEPASISCRSSQSLVHSNRNTYLHWYQQKPGQAPRLLIYKVSNRFSGVPDRFSGSGSGTDFTLKISRVEAEDVGVYYCGQGTQVPYTFGQGTKLEIK"
7,1.2,"CE115HA000 D101M (antibody, name in Kabat numbering, V domains shown) VH: QVQLVESGGGVVQPGRSLRLSCAASGFTFSNAWMHWVRQAPGKGLEWVAQIKAKSNNYATYYAESVKGRFTISRDDSKNSLYLQMNSLKTEDTAVYYCRYVHYGAYYGVMAWGQGTTVTVSS VL: DIVMTQSPLSLPVTPGEPASISCRSSQSLVHSNRNTYLHWYQQKPGQAPRLLIYKVSNRFSGVPDRFSGSGSGTDFTLKISRVEAEDVGVYYCGQGTQVPYTFGQGTKLEIK"
8,1.38,"CE115HA000 D101G (antibody, name in Kabat numbering, V domains shown) VH: QVQLVESGGGVVQPGRSLRLSCAASGFTFSNAWMHWVRQAPGKGLEWVAQIKAKSNNYATYYAESVKGRFTISRDDSKNSLYLQMNSLKTEDTAVYYCRYVHYGAYYGVGAWGQGTTVTVSS VL: DIVMTQSPLSLPVTPGEPASISCRSSQSLVHSNRNTYLHWYQQKPGQAPRLLIYKVSNRFSGVPDRFSGSGSGTDFTLKISRVEAEDVGVYYCGQGTQVPYTFGQGTKLEIK"
9,0.73,"CE115HA000 D73E (antibody, name in Kabat numbering, V domains shown) VH: QVQLVESGGGVVQPGRSLRLSCAASGFTFSNAWMHWVRQAPGKGLEWVAQIKAKSNNYATYYAESVKGRFTISRDESKNSLYLQMNSLKTEDTAVYYCRYVHYGAYYGVDAWGQGTTVTVSS VL: DIVMTQSPLSLPVTPGEPASISCRSSQSLVHSNRNTYLHWYQQKPGQAPRLLIYKVSNRFSGVPDRFSGSGSGTDFTLKISRVEAEDVGVYYCGQGTQVPYTFGQGTKLEIK"
10,0.63,"CE115HA000 D73T (antibody, name in Kabat numbering, V domains shown) VH: QVQLVESGGGVVQPGRSLRLSCAASGFTFSNAWMHWVRQAPGKGLEWVAQIKAKSNNYATYYAESVKGRFTISRDTSKNSLYLQMNSLKTEDTAVYYCRYVHYGAYYGVDAWGQGTTVTVSS VL: DIVMTQSPLSLPVTPGEPASISCRSSQSLVHSNRNTYLHWYQQKPGQAPRLLIYKVSNRFSGVPDRFSGSGSGTDFTLKISRVEAEDVGVYYCGQGTQVPYTFGQGTKLEIK"
11,0.43,"CE115HA000 D73G (antibody, name in Kabat numbering, V domains shown) VH: QVQLVESGGGVVQPGRSLRLSCAASGFTFSNAWMHWVRQAPGKGLEWVAQIKAKSNNYATYYAESVKGRFTISRDGSKNSLYLQMNSLKTEDTAVYYCRYVHYGAYYGVDAWGQGTTVTVSS VL: DIVMTQSPLSLPVTPGEPASISCRSSQSLVHSNRNTYLHWYQQKPGQAPRLLIYKVSNRFSGVPDRFSGSGSGTDFTLKISRVEAEDVGVYYCGQGTQVPYTFGQGTKLEIK"
